“And” between values parts separate entries of the source, which are not always exact repeats. Equal values may be shown once. One block for each molecule: values may come before it. Non-standard residues stand in square brackets, D forms with d. No end group written: not given here. *: point of attachment. Fmoc = O=C(OCC1c2ccccc2-c2ccccc21)*
Legend:
GMP-140 = biological target: T1, GMP-140 (Homo sapiens, UniProt P16109); assay: Inhibition of neutrophil binding to GMP-140 coated wells; assay type: cell-based; settings: human neutrophils, immobilized GMP-140
T1 construct: from tissue; host or cells: human platelets (outdated platelet packs from a blood bank)
T1 sequence (P16109 42-830): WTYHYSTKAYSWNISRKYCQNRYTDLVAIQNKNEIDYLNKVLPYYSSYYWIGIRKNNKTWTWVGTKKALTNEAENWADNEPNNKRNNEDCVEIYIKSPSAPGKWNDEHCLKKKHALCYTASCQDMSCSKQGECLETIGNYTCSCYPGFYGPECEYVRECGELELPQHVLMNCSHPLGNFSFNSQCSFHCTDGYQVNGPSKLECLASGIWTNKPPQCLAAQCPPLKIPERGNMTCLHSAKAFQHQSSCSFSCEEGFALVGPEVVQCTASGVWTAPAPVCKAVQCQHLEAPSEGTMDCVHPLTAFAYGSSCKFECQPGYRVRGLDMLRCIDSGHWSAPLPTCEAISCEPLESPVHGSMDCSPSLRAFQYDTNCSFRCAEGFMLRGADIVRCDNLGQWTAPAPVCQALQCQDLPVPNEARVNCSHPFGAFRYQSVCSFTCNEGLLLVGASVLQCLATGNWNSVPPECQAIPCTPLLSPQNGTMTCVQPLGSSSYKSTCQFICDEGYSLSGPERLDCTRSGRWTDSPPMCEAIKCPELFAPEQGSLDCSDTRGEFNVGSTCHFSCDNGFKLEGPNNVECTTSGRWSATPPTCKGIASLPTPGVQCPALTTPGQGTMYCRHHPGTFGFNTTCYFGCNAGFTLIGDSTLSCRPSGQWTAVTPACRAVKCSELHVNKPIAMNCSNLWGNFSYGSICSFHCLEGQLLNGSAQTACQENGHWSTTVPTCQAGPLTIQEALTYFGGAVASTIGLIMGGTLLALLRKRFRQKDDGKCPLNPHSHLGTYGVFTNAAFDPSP
Excerpt: Peptides can be screened for their ability to inhibit adhesion to cells, for example, neutrophil adhesion to purified GMP-140 immobilized on plastic wells, using the assay described by Geng, et al., Nature 343, 757-760 (1990).
Human neutrophils are isolated from heparinized whole blood by density gradient centrifugation on Mono-Poly resolving media, Flow laboratories. Neutrophil suspensions are greater than 98% pure and greater than 95% viable by trypan blue exclusion. For adhesion assays, neutrophils are suspended at a concentration of 2×10^6 cells/mL in Hanks' balanced salt solution containing 1.26 mM Ca^2+ and 0.81 mM Mg^2+ (HBSS, Gibco) with 5 mg/mL human serum albumin (HBSS/HSA). Adhesion assays are conducted in triplicate in 96-well microtiter plates, Corning, incubated at 4° C. overnight with 50 microliters of various protein solutions.
GMP-140 is isolated from human platelet lysates by immunoaffinity chromatography on antibody S12-Sepharose™ and ion-exchange chromatography on a Mono-Q™ column (FLPC, Pharmacia Fine Chemicals, as follows.
GMP-140 is plated at 5 micrograms/mL and the control proteins: human serum albumin (Alb), platelet glycoprotein Iib/IIIha (Iib), von Willebrand factor (vWF), fibrinogen (FIB), thrombomodulin™, gelatin (GEL) or human serum (HS), are added at 50 micrograms/mL. All wells are blocked for 2 h at 22° C. with 300 microliters HBSS containing 10 mg/mL HSA, then ashed three times with HBSS containing 0.1% Tween-20 and once with HBSS. Cells (2×10^5 per well are added to the wells and incubated at 22° C. for 20 min. The wells are then filled with HGSS/HSA, sealed with acetate tape (Dynatech), and centrifuged inverted at 150 g for 5 min. After discarding nonadherent cells and supemates, the contents of each well are solubilized with 200 microliters of 0.5% hexadecyltrimethylammonium bromide, Sigma, in 50 mM potassium phosphate, pH 6.0, and assayed for myeloperoxidase activity, Ley, et al., Blood 73, 1324-1330 (1989). The number of cells bound is derived from a standard curve of myeloperoxidase activity versus numbers of cells. Under all assay conditions, the cells release less than 5% of total myeloperoxidase and lactate dehydrogenase. Inhibition is read as a lower percent adhesion, so that a value of 5% means that 95% of the specific adhesion was inhibited.
Binding of various peptides to GMP-140 coated wells, as described above, were compared.
Binding of the peptides at various concentrations, ranging from 0.05 to 1 mM were compared.
A 5 μg/mL solution of GMP-140 in HBSS (buffer) is prepared. 50 μL is pipetted per well with the exception of three wells (A10 to A12) and the plate is stored overnight at 0° C. to 4° C. The liquids are removed by aspiration and 300 μL of 5 mg/mL human serum albumin (HSA)/HBSS is placed in the wells coated with GMP-140 plus the three non-coated wells to be used as control wells. The plate is allowed to incubate at room temperature for two hours. The HSA/HBSS solution is removed and the wells washed three times with 300 μL/well of HBSS. The third 300 μL wash of HBSS is left in each well and the plate is kept at room temperature until it is used.
Eight to ten mL of fresh human blood collected in heparinized tubes is carefully layered over 5 mL of the Mono-Poly Resolving Medium in 15 mL polypropylene centrifuge tubes. The tubes are centrifuged for 30 minutes at room temperature and 1400 to 1600 rpm. The tubes are rotated 180° and centrifuged for another 30 minutes under the same conditions. The top plasma layer and first cellular layer of leukocytes are drawn off. The second cellular layer of neutrophils is harvested (usually 2 to 3 mL per tube) and is placed in a clean 15 mL centrifuge tube. This is then underlayered with 1.5 mL of fresh resolving medium and spun at 2000 rpm for 15 minutes at room temperature. This is done to further purify the neutrophils from residual red blood cells. […]

[1] = biological target: GMP-140 receptors on the surface of leukocytes (human); assay: neutrophil adhesion to GMP-140 coated wells, peptide preincubated with neutrophils, myeloperoxidase read-out

Percent inhibition of neutrophil binding to GMP-140 (GMP-140; peptide concentration 1.0 mM): 17%
Molecule: Arg-Lys-Val-Asn-Asn-Val-Trp-NH2 (RKVNNVW-NH2)

inhibition at 100 µM (GMP-140; peptide concentration 0.1 mM, read-out: Percent inhibition of neutrophil binding to GMP-140): 82%
inhibition at 500 µM (GMP-140; peptide concentration 0.5 mM, read-out: Percent inhibition of neutrophil binding to GMP-140): 98%
Molecule: RKVNNVWVWV [RKVNNVWVWV, Arginyl-lysyl-valyl-asparaginyl-asparaginyl-valyl-tryptophyl-valyl-tryptophyl-valine]

Percent inhibition of neutrophil binding to GMP-140 (GMP-140; peptide concentration 0.1 mM): 0%
Percent inhibition of neutrophil binding to GMP-140 (GMP-140; peptide concentration 0.5 mM): 0%
Percent inhibition of neutrophil binding to GMP-140 (GMP-140; peptide concentration 1.0 mM): 0%
Molecule: KWKWNRTNVT-NH2 [reference compound]

percent inhibition of neutrophil binding to GMP-140 at 0.1 mM peptide [1]: 14%
percent inhibition of neutrophil binding to GMP-140 at 1.0 mM peptide [1]: 35%
B1: … (peptide)
peptide: RKNNKTWTWV

percent inhibition of neutrophil binding to GMP-140 at 0.1 mM peptide [1]: 17%
percent inhibition of neutrophil binding to GMP-140 at 0.5 mM peptide [1]: 20%
B2: …-NH2 (peptide)
peptide: RKNNKTWTWE-NH2

percent inhibition of neutrophil binding to GMP-140 at 0.1 mM peptide [1]: 85%
percent inhibition of neutrophil binding to GMP-140 at 0.5 mM peptide [1]: 100%
percent inhibition of neutrophil binding to GMP-140 at 1.0 mM peptide [1]: 99%
B3: FMOC-NNKTW-NH2 (peptide)
peptide: Fmoc-NNKTW-NH2
SMILES: C[C@@H](O)[C@H](NC(=O)[C@H](CCCCN)NC(=O)[C@H](CC(N)=O)NC(=O)[C@H](CC(N)=O)NC(=O)OCC1c2ccccc2-c2ccccc21)C(=O)N[C@@H](Cc1c[nH]c2ccccc12)C(N)=O

percent inhibition of neutrophil binding to GMP-140 at 0.1 mM peptide [1]: 0%
percent inhibition of neutrophil binding to GMP-140 at 0.5 mM peptide [1]: 0%
percent inhibition of neutrophil binding to GMP-140 at 1.0 mM peptide [1]: 0%
B4: …-NH2 (control peptide) (peptide)
peptide: KWKWNRTNVT-NH2

percent inhibition of neutrophil binding to GMP-140 at 0.1 mM peptide [1]: 82%
percent inhibition of neutrophil binding to GMP-140 at 0.5 mM peptide [1]: 98%
B5: … (peptide)
peptide: RKVNNVWVWV

percent inhibition of neutrophil binding to GMP-140 at 0.1 mM peptide [1]: 34%
percent inhibition of neutrophil binding to GMP-140 at 0.5 mM peptide [1]: 94%
percent inhibition of neutrophil binding to GMP-140 at 1.0 mM peptide [1]: 96%
B6: …-NH2 (peptide)
peptide: RENNKTWTWV-NH2

percent inhibition of neutrophil binding to GMP-140 at 0.1 mM peptide [1]: 46%
percent inhibition of neutrophil binding to GMP-140 at 0.5 mM peptide [1]: 99%
percent inhibition of neutrophil binding to GMP-140 at 1.0 mM peptide [1]: 99%
B7: …-NH2 (peptide)
peptide: RKNNGTWTWV-NH2

percent inhibition of neutrophil binding to GMP-140 at 1.0 mM peptide [1]: 17%
B8: RKVNNVW-NH2 (peptide)
peptide: RKVNNVW-NH2

percent inhibition of neutrophil binding to GMP-140 at 0.1 mM peptide [1]: 96%
percent inhibition of neutrophil binding to GMP-140 at 0.5 mM peptide [1]: 103%
percent inhibition of neutrophil binding to GMP-140 at 1.0 mM peptide [1]: 105%
B9: …-NH2 (peptide)
peptide: RKIGGIWTWV-NH2

percent inhibition of neutrophil binding to GMP-140 at 0.1 mM peptide [1]: 87%
percent inhibition of neutrophil binding to GMP-140 at 1.0 mM peptide [1]: 105%
B10: …-NH2 (peptide)
peptide: CRKNNKTWTWV-NH2

percent inhibition of neutrophil binding to GMP-140 at 0.1 mM peptide [1]: 9%
percent inhibition of neutrophil binding to GMP-140 at 1.0 mM peptide [1]: 47%
B11: …-NH2 (peptide)
peptide: RKNNKTWTWVGTKKALTNEC-NH2

percent inhibition of neutrophil binding to GMP-140 at 0.1 mM peptide [1]: 9%
percent inhibition of neutrophil binding to GMP-140 at 0.5 mM peptide [1]: 98%
percent inhibition of neutrophil binding to GMP-140 at 1.0 mM peptide [1]: 104%
B12: …-NH2 (peptide)
peptide: YKNNKTWTWV-NH2

percent inhibition of neutrophil binding to GMP-140 at 0.1 mM peptide [1]: 31%
percent inhibition of neutrophil binding to GMP-140 at 0.5 mM peptide [1]: 53%
percent inhibition of neutrophil binding to GMP-140 at 1.0 mM peptide [1]: 99%
B13: RKNNKTW-NH2 (peptide)
peptide: RKNNKTW-NH2

percent inhibition of neutrophil binding to GMP-140 at 0.1 mM peptide [1]: 13% and 14%
percent inhibition of neutrophil binding to GMP-140 at 0.5 mM peptide [1]: 20% and 30%
B14: …-NH2 (peptide)
peptide: RKNNKTWTWV-NH2

percent inhibition of neutrophil binding to GMP-140 at 0.1 mM peptide [1]: 35%
percent inhibition of neutrophil binding to GMP-140 at 0.5 mM peptide [1]: 50%
B15: Ac-…-NH2 (peptide)
peptide: Ac-RKNNKTWTWV-NH2

percent inhibition of neutrophil binding to GMP-140 at 0.1 mM peptide [1]: 95%
percent inhibition of neutrophil binding to GMP-140 at 0.5 mM peptide [1]: 96%
B16: r…-NH2 (peptide)
peptide: [dR]KIGGIWTWV-NH2
modifications: N-terminus assumed
SMILES: CC[C@H](C)[C@H](NC(=O)CNC(=O)CNC(=O)[C@@H](NC(=O)[C@H](CCCCN)NC(=O)[C@H](N)CCCNC(=N)N)[C@@H](C)CC)C(=O)N[C@@H](Cc1c[nH]c2ccccc12)C(=O)N[C@H](C(=O)N[C@@H](Cc1c[nH]c2ccccc12)C(=O)N[C@H](C(N)=O)C(C)C)[C@@H](C)O

percent inhibition of neutrophil binding to GMP-140 at 0.1 mM peptide [1]: 67%
percent inhibition of neutrophil binding to GMP-140 at 0.5 mM peptide [1]: 88%
percent inhibition of neutrophil binding to GMP-140 at 1.0 mM peptide [1]: 97%
B17: RkIGGIWTWV-NH2 (peptide)
peptide: R[dK]IGGIWTWV-NH2
modifications: N-terminus assumed
SMILES: CC[C@H](C)[C@H](NC(=O)CNC(=O)CNC(=O)[C@@H](NC(=O)[C@@H](CCCCN)NC(=O)[C@@H](N)CCCNC(=N)N)[C@@H](C)CC)C(=O)N[C@@H](Cc1c[nH]c2ccccc12)C(=O)N[C@H](C(=O)N[C@@H](Cc1c[nH]c2ccccc12)C(=O)N[C@H](C(N)=O)C(C)C)[C@@H](C)O

percent inhibition of neutrophil binding to GMP-140 at 0.1 mM peptide [1]: 26%
percent inhibition of neutrophil binding to GMP-140 at 0.5 mM peptide [1]: 23%
percent inhibition of neutrophil binding to GMP-140 at 1.0 mM peptide [1]: 34%
B18: RKNNKTWT-NH2 (peptide)
peptide: RKNNKTWT-NH2

percent inhibition of neutrophil binding to GMP-140 at 0.1 mM peptide [1]: 94%
percent inhibition of neutrophil binding to GMP-140 at 0.5 mM peptide [1]: 102%
B19: …-NH2 (peptide)
peptide: RKVNNVWVWV-NH2

From US6528487B1, “Peptide inhibitors of inflammation mediated by selectins” (Centocor, Inc., priority 1991, dated 2003)
